In US20150165065A1 (AVIDBIOTICS, published 2015):
Numbering of substitutions follows the chain as printed. Like-named read-outs stand apart in the source and are kept apart here.

Assays:
integrin αVβ3 [1] = target: T1, integrin αVβ3 (UniProt P06756 31-992; P05106 27-718); assay: ELISA, coated integrin, anti-MICA-HRP
T1 construct: Coated on the ELISA plate
Method: (§1) The ability of the soluble MICA molecules in each of the concentrated supernatants to bind target molecules was assayed by an ELISA using the intended target proteins, integrin αVβ3 or αVβ5, as capture agents on the ELISA plate. After the respective integrins were adhered to the bottoms of the wells of the ELISA plate, the wells were washed and blocked, as well known in the field. Each sample (100 μl) of soluble MICA produced and secreted by 293T cells was added to wells containing αVβ3 or αVβ5, incubated and washed. The soluble MICA molecules captured by the integrins were detected by HRP-conjugated antibody to human MICA developed with Ultra TMB-ELISA substrate and the optical densities read. The quantity of soluble MICA in each sample was determined by the MICA-specific ELISA. […] The ELISA signal from a non-binding, negative control MICA (generated by pSW273) was subtracted from each integrin binding signal.

integrin αVβ5 [2] = target: T2, integrin αVβ5 (UniProt P06756 31-992; P18084 24-719); assay: ELISA, coated integrin, anti-MICA-HRP
T2 construct: Coated on the ELISA plate
T2 sequence (P06756 31-992, chain 1 of 2): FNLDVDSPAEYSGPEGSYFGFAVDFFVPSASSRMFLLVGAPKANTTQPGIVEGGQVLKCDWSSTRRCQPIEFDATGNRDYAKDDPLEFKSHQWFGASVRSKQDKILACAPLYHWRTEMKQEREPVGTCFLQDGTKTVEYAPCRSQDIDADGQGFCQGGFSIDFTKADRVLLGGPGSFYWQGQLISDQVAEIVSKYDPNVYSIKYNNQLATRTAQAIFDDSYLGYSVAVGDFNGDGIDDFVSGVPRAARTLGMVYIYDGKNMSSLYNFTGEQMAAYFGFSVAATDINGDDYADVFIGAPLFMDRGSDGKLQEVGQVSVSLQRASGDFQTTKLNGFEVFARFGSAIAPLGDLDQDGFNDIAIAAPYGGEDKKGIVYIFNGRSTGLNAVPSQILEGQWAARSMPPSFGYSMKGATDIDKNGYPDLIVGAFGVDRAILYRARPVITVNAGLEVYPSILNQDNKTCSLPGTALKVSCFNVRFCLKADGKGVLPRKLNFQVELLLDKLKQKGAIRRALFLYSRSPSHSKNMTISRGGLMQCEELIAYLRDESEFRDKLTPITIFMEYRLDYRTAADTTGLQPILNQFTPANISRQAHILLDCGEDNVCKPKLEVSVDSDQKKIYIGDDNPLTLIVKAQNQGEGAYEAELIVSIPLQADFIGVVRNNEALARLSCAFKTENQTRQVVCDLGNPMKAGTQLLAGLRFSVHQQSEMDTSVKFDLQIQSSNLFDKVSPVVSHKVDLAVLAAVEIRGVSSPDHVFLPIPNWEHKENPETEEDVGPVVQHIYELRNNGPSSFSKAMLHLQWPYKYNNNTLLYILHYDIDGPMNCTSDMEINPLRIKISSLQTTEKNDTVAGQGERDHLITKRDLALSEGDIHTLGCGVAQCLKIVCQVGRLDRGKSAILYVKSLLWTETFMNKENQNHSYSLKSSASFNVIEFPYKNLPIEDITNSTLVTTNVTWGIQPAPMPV
T2 sequence (P18084 24-719, chain 2 of 2): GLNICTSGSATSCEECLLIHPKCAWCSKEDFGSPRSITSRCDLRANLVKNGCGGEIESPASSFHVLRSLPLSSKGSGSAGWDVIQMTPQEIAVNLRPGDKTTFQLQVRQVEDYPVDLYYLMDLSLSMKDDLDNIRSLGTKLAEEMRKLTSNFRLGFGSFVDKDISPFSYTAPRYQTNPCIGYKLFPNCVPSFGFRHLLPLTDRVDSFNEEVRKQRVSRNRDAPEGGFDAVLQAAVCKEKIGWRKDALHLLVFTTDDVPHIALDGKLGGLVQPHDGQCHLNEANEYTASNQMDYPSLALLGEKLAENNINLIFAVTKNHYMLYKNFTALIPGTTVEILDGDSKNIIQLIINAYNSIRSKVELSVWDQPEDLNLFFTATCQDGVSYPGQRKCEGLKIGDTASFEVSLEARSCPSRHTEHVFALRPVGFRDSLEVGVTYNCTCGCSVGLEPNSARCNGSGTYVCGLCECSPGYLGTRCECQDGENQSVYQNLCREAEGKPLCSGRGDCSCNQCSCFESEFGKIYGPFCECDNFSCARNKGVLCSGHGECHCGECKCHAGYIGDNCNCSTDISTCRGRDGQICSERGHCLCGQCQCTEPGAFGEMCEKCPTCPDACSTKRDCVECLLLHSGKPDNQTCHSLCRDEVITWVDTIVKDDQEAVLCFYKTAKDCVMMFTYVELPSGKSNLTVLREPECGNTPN
Method: as §1

integrin αVβ3 [3] = target: T1, integrin αVβ3; assay: ELISA, coated integrin, anti-MICA-HRP; remark: listed apart in the source
Method: (§2) ELISA assays of the integrin target-binding of soluble MICA molecules generated from pKK128-131 were performed as follows. After the respective integrins were adhered to the bottoms of the wells of the ELISA plate, the wells were washed and blocked. Each sample (100 μl) of culture supernatant was added to wells containing αVβ3 or αVβ5, incubated and washed. The soluble MICA molecules captured by the integrins were detected by HRP-conjugated antibody to human MICA developed with Ultra TMB-ELISA substrate and the optical densities read. The quantity of soluble MICA in each sample was determined by the MICA-specific ELISA.

integrin αVβ5 [4] = target: T2, integrin αVβ5; assay: ELISA, coated integrin, anti-MICA-HRP; remark: listed apart in the source
Method: as §2

integrin αVβ3 [5] = target: T1, integrin αVβ3; assay: phage ELISA, coated integrin, anti-M13-HRP
Method: (§3) The phage vectors were independently transformed into NEBαF′tet competent E. coli cells. Phages produced by the transformed cells were tittered and their concentrations adjusted by dilution to 10¹³ per ml. The ability of the soluble MICA molecules in each of the phage preparations was assayed by an ELISA using the intended target proteins, integrin αVβ3 or αVβ5, as capture agents on the ELISA plate. After the respective integrins were adhered to the bottoms of the wells of the ELISA plate, the wells were washed and blocked, as well known in the field. Each sample (100 μl) of phage preparation was added to wells containing αVβ3 or αVβ5, incubated and washed. The phages captured by the integrins were detected by HRP-conjugated antibody to the M13 phage coat developed with Ultra TMB-ELISA substrate and the optical densities read.

integrin αVβ5 [6] = target: T2, integrin αVβ5; assay: phage ELISA, coated integrin, anti-M13-HRP
Method: as §3

integrin αVβ3 [7] = target: T1, integrin αVβ3; assay: phage ELISA, coated integrin, anti-M13-HRP; remark: listed apart in the source
Method: (§4) The ELISA assays of the integrin target-binding of M13 phages displaying α3 domains with binding peptide inserts grafted into more than one loop were performed as follows. After the respective integrins were adhered to the bottoms of the wells of the ELISA plate, the wells were washed and blocked. Each sample (100 μl) of phage preparation was added to wells containing αVβ3 or αVβ5, incubated and washed. The phages captured by the integrins were detected by HRP-conjugated antibody to the M13 phage coat developed with Ultra TMB-ELISA substrate and the optical densities read.

integrin αVβ5 [8] = target: T2, integrin αVβ5; assay: phage ELISA, coated integrin, anti-M13-HRP; remark: listed apart in the source
Method: as §4

T1 sequence (P06756 31-992, chain 1 of 2): as the sequence (P06756 31-992, chain 1 of 2) above
T1 sequence (P05106 27-718, chain 2 of 2): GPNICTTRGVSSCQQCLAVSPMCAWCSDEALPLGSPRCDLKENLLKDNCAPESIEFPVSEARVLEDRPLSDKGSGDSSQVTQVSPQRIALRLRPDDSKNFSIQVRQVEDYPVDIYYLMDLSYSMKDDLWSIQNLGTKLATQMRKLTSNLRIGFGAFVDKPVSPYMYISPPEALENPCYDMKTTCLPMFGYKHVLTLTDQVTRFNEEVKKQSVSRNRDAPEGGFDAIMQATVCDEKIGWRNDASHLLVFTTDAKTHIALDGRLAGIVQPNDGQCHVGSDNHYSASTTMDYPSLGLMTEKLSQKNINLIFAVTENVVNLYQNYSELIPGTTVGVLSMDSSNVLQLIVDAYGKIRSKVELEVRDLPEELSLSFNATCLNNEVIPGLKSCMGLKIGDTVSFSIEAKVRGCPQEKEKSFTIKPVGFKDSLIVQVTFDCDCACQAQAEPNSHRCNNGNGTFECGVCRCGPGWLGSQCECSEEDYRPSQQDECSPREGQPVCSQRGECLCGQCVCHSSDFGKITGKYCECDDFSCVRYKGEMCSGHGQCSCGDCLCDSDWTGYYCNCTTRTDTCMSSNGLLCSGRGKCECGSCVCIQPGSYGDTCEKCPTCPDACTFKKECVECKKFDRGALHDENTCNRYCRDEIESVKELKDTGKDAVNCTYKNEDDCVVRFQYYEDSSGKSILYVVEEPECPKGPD

B1: soluble MICA generated from pKK46 (loop 1 insert extended 5.1sp) (designed binder)
chain: HHHHHHEPHSLRYNLTVLSWDGSVQSGFLTEVHLDGQPFLRCDRQKCRAKPQGQWAEDVLGNKTWDRETRDLTGNGKDLRMTLAHIKDQKEGLHSLQEIRVCEIHEDNSTRSSQHFYYDGELFLSQNLETEEWTMPQSSRAQTLAMNVRNFLKEDAMKTKTHYHAMHADCLQELRRYLKSGVVLRRTVPPMVNVTSGGSGGGSVTRGDTFTQSSGGSGGGVTCRASGFYPWNITLSWRQDGVSLSHDTQQWGDVLPDGNGTYQTWVATRICQGEEQRFTCYMEHSGNHSTHPVPSGK
notes: From pKK34 (His6, Glu125); secreted by 293T cells; also called 1-5.1sp
αvβ3 signal (integrin αVβ3 [1]): 0.384 OD
αvβ3 signal/ng (integrin αVβ3 [1]): 9.2 signal/ng MICA
αvβ5 signal (integrin αVβ5 [2]): 1.06 OD
αvβ5 signal/ng (integrin αVβ5 [2]): 25.5 signal/ng MICA
αvβ3 signal (integrin αVβ3 [3]): 0.467 OD
αvβ3 signal/ng (integrin αVβ3 [3]): 9.42 signal/ng MICA
αvβ5 signal (integrin αVβ5 [4]): 0.66 OD
αvβ5 signal/ng (integrin αVβ5 [4]): 13.3 signal/ng MICA

B2: M13 phage pKK107 displaying MICA α3 domain with tight loop 1 insert T-3.1 (designed binder)
chain: TVPPMVNTSRGDHPRTQCRASGFYPWNITLSWRQDGVSLSHDTQQWGDVLPDGNGTYQTWVATRICQGEEQRFTCYMEHSGNHSTHPVPSGK
notes: also called 1-T-3.1; not shown: C-terminal portion of M13 gene III protein, fused at codon position 198
αvβ3 signal (integrin αVβ3 [5]): 0.999 OD
αvβ5 signal (integrin αVβ5 [6]): 1.49 OD

B3: M13 phage pKK110 displaying MICA α3 domain with tight loop 1 insert T-5.1 (designed binder)
chain: B2 chain with T8V, S9T, H13T, P14F, R15T, T16Q, Q17S
notes: also called 1-T-5.1; not shown: C-terminal portion of M13 gene III protein, fused at codon position 198
αvβ3 signal (integrin αVβ3 [5]): 1.49 OD
αvβ5 signal (integrin αVβ5 [6]): 2.56 OD

B4: M13 phage pKK111 displaying MICA α3 domain with tight loop 1 insert T-5.3 (designed binder)
chain: B2 chain with T8H, S9L, R10A, G11R, D12G, H13D, P14D, R15L, Q17Y
notes: also called 1-T-5.3; not shown: C-terminal portion of M13 gene III protein, fused at codon position 198
αvβ3 signal (integrin αVβ3 [5]): 0.707 OD
αvβ5 signal (integrin αVβ5 [6]): 0.657 OD

B5: M13 phage pKK108 displaying MICA α3 domain with tight loop 1 insert T-3.5 (designed binder)
chain: B2 chain with T8G, H13S, P14L, R15I, T16M, Q17H
notes: also called 1-T-3.5; not shown: C-terminal portion of M13 gene III protein, fused at codon position 198
αvβ3 signal (integrin αVβ3 [5]): -0.09 OD
αvβ5 signal (integrin αVβ5 [6]): -0.204 OD

B6: M13 phage pKK93 displaying MICA α3 domain with loop 1 insert 3.2 (designed binder)
chain: TVPPMVNVTRTSRGDHPRTQVTCRASGFYPWNITLSWRQDGVSLSHDTQQWGDVLPDGNGTYQTWVATRICQGEEQRFTCYMEHSGNHSTHPVPSGK
notes: also called 1-3.2; not shown: C-terminal portion of M13 gene III protein, fused at codon position 198
αvβ3 signal (integrin αVβ3 [5]): 0.284 OD
αvβ5 signal (integrin αVβ5 [6]): 0.291 OD
αvβ3 signal (integrin αVβ3 [7]): 0.616 OD
αvβ5 signal (integrin αVβ5 [8]): 0.774 OD

B7: M13 phage pKK106 displaying wild type MICA α3 domain fused to pIII (other)
chain: TVPPMVNVTRSEASEGNITVTCRASGFYPWNITLSWRQDGVSLSHDTQQWGDVLPDGNGTYQTWVATRICQGEEQRFTCYMEHSGNHSTHPVPSGK
notes: also called WT; not shown: C-terminal portion of M13 gene III protein, fused at codon position 198
αvβ3 signal (integrin αVβ3 [5]): 0 OD
αvβ5 signal (integrin αVβ5 [6]): 0 OD
αvβ3 signal (integrin αVβ3 [7]): 0 OD
αvβ5 signal (integrin αVβ5 [8]): 0 OD

B8: M13 phage pKK96 displaying MICA α3 domain with loop 1 insert 5.1 (designed binder)
chain: B7 chain with R10V, S11T, E12R, A13G, S14D, E15T, G16F, N17T, I18Q, T19S
notes: also called 1-5.1; not shown: C-terminal portion of M13 gene III protein, fused at codon position 198
αvβ3 signal (integrin αVβ3 [5]): 1.64 OD
αvβ5 signal (integrin αVβ5 [6]): 2.42 OD

B9: M13 phage pKK97 displaying MICA α3 domain with loop 1 insert 5.2 (designed binder)
chain: TVPPMVNVTRGDTFTQSVTCRASGFYPWNITLSWRQDGVSLSHDTQQWGDVLPDGNGTYQTWVATRICQGEEQRFTCYMEHSGNHSTHPVPSGK
notes: also called 1-5.2; not shown: C-terminal portion of M13 gene III protein, fused at codon position 198
αvβ3 signal (integrin αVβ3 [5]): 1.55 OD
αvβ5 signal (integrin αVβ5 [6]): 2.59 OD

B10: soluble MICA generated by pSW273 (wild type loops, negative control) (ligand)
chain: HHHHHHEPHSLRYNLTVLSWDGSVQSGFLTEVHLDGQPFLRCDRQKCRAKPQGQWAEDVLGNKTWDRETRDLTGNGKDLRMTLAHIKDQKEGLHSLQEIRVCEIHEDNSTRSSQHFYYDGELFLSQNLETEEWTMPQSSRAQTLAMNVRNFLKEDAMKTKTHYHAMHADCLQELRRYLKSGVVLRRTVPPMVNVTRSEASEGNITVTCRASGFYPWNITLSWRQDGVSLSHDTQQWGDVLPDGNGTYQTWVATRICQGEEQRFTCYMEHSGNHSTHPVPSGK
notes: Secreted by 293T cells; six His between signal peptide and residue 1; made from pSW267 (Glu125); also called WT
binding result (integrin αVβ3 [1]): no binding
binding result (integrin αVβ5 [2]): no binding
αvβ3 signal (integrin αVβ3 [3]): 0.099 OD
αvβ3 signal/ng (integrin αVβ3 [3]): 6.73 signal/ng MICA
αvβ5 signal (integrin αVβ5 [4]): 0.1 OD
αvβ5 signal/ng (integrin αVβ5 [4]): 6.8 signal/ng MICA
